Data on 3 molecules can be found in paper PMC8986097, “SUMO-mediated recruitment allows timely function of the Yen1 nuclease in mitotic cells” (PLoS Genetics, 2022).

The experiment deals with GST-Smt3 (S. cerevisiae, UniProt Q12306 1-101 = SUMO). Briefly: cell-based or functional assay.
GST-Smt3, sequence (Q12306 whole entry): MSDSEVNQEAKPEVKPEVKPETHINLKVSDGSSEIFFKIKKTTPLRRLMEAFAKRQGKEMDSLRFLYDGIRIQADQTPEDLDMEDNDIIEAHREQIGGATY

B1: Yen1 SIM1-2ΔΔ (D635A D636A D637A V675A E677A), HA-tagged, purified (natural protein, S. cerevisiae, UniProt P40028 1-759, looked up)
chain: MGVSQIWEFLKPYLQDSRIPLRKFVIDFNKSQKRAPRIAIDAYGWLFECGFIQNIDISARSRSRSRSPTRSPRDSDIDSSQEYYGSRSYTTTGKAVINFISRLKELLSLNVEFLLVFDGVMKPSFKRKFNHEQNATTCDDEKEYYSSWEQHVKNHEVYGNCKGLLAPSDPEFISLVRKLLDLMNISYVIACGEGEAQCVWLQVSGAVDFILSNDSDTLVFGGEKILKNYSKFYDDFGPSSITSHSPSRHHDSKESFVTVIDLPKINKVAGKKFDRLSLLFFSVLLGADYNRGVKGLGKNKSLQLAQCEDPNFSMEFYDIFKDFNLEDLTSESLRKSRYRLFQKRLYLYCKDHSVELFGRNYPVLLNQGSFEGWPSTVAIMHYFHPIVQPYFDEEVLSDKYINMAGNGHYRNLNFNELKYFLQSLNLPQISSFDKWFHDSMHEMFLLREFLSIDESDNIGKGNMRITEEKIMNIDGGKFQIPCFKIRYTTFLPNIPISSQSPLKRSNSPSRSKSPTRRQMDIMEHPNSLWLPKYLIPQSHPLVIQYYETQQLIQKEKEKKGKKSNKSRLPQKNNLDEFLRKHTSPIKSIGKVGESRKEILEPVRKRLFVDTDEDTSLEEIPAPTRLTTVDEHSDNAAASLIFVDEITNSQSVLDSSPGKRIRDLTQDEQVDVWKDAIAISPIKKSRTTNAEKNPPESGLKSRSSITINARLQGTKMLPPNLTAPRLEREHSSVLDQLVTDAQDTVDRFVACDSDSSSTIE
Consider B1, for which the “fraction of SUMOylated Yen1 recovered by denaturing Ni-NTA pull-down of 6xHis-Smt3 from cells grown in 0.3% MMS, relative to wild-type Yen1” value worked out at 1%.

B2: Yen1 SIM2Δ (V675A E677A), HA-tagged, purified (natural protein, S. cerevisiae, UniProt P40028 1-759, looked up)
chain: MGVSQIWEFLKPYLQDSRIPLRKFVIDFNKSQKRAPRIAIDAYGWLFECGFIQNIDISARSRSRSRSPTRSPRDSDIDSSQEYYGSRSYTTTGKAVINFISRLKELLSLNVEFLLVFDGVMKPSFKRKFNHEQNATTCDDEKEYYSSWEQHVKNHEVYGNCKGLLAPSDPEFISLVRKLLDLMNISYVIACGEGEAQCVWLQVSGAVDFILSNDSDTLVFGGEKILKNYSKFYDDFGPSSITSHSPSRHHDSKESFVTVIDLPKINKVAGKKFDRLSLLFFSVLLGADYNRGVKGLGKNKSLQLAQCEDPNFSMEFYDIFKDFNLEDLTSESLRKSRYRLFQKRLYLYCKDHSVELFGRNYPVLLNQGSFEGWPSTVAIMHYFHPIVQPYFDEEVLSDKYINMAGNGHYRNLNFNELKYFLQSLNLPQISSFDKWFHDSMHEMFLLREFLSIDESDNIGKGNMRITEEKIMNIDGGKFQIPCFKIRYTTFLPNIPISSQSPLKRSNSPSRSKSPTRRQMDIMEHPNSLWLPKYLIPQSHPLVIQYYETQQLIQKEKEKKGKKSNKSRLPQKNNLDEFLRKHTSPIKSIGKVGESRKEILEPVRKRLFVDTDEDTSLEEIPAPTRLTTVDEHSDNDDDSLIFVDEITNSQSVLDSSPGKRIRDLTQDEQVDVWKDAIAISPIKKSRTTNAEKNPPESGLKSRSSITINARLQGTKMLPPNLTAPRLEREHSSVLDQLVTDAQDTVDRFVACDSDSSSTIE
Take B2: the “fraction of SUMOylated Yen1 recovered by denaturing Ni-NTA pull-down of 6xHis-Smt3 from cells grown in 0.3% MMS, relative to wild-type Yen1” value was roughly 20%.

B3: Yen1 SIM1Δ (D635A D636A D637A), HA-tagged, purified (natural protein, S. cerevisiae, UniProt P40028 1-759, looked up)
chain: MGVSQIWEFLKPYLQDSRIPLRKFVIDFNKSQKRAPRIAIDAYGWLFECGFIQNIDISARSRSRSRSPTRSPRDSDIDSSQEYYGSRSYTTTGKAVINFISRLKELLSLNVEFLLVFDGVMKPSFKRKFNHEQNATTCDDEKEYYSSWEQHVKNHEVYGNCKGLLAPSDPEFISLVRKLLDLMNISYVIACGEGEAQCVWLQVSGAVDFILSNDSDTLVFGGEKILKNYSKFYDDFGPSSITSHSPSRHHDSKESFVTVIDLPKINKVAGKKFDRLSLLFFSVLLGADYNRGVKGLGKNKSLQLAQCEDPNFSMEFYDIFKDFNLEDLTSESLRKSRYRLFQKRLYLYCKDHSVELFGRNYPVLLNQGSFEGWPSTVAIMHYFHPIVQPYFDEEVLSDKYINMAGNGHYRNLNFNELKYFLQSLNLPQISSFDKWFHDSMHEMFLLREFLSIDESDNIGKGNMRITEEKIMNIDGGKFQIPCFKIRYTTFLPNIPISSQSPLKRSNSPSRSKSPTRRQMDIMEHPNSLWLPKYLIPQSHPLVIQYYETQQLIQKEKEKKGKKSNKSRLPQKNNLDEFLRKHTSPIKSIGKVGESRKEILEPVRKRLFVDTDEDTSLEEIPAPTRLTTVDEHSDNAAASLIFVDEITNSQSVLDSSPGKRIRDLTQDEQVDVWKDVIEISPIKKSRTTNAEKNPPESGLKSRSSITINARLQGTKMLPPNLTAPRLEREHSSVLDQLVTDAQDTVDRFVACDSDSSSTIE
Turning to B3, the “fraction of SUMOylated Yen1 recovered by denaturing Ni-NTA pull-down of 6xHis-Smt3 from cells grown in 0.3% MMS, relative to wild-type Yen1” value was 5%.
